Laboratory results taken from publication PMC4930246 (Structure (London, England : 1993), 2015).

T1: FLRT3-LRR F160A (mouse, UniProt Q8BGT1 29-386, F160A)
T1 sequence (looked up): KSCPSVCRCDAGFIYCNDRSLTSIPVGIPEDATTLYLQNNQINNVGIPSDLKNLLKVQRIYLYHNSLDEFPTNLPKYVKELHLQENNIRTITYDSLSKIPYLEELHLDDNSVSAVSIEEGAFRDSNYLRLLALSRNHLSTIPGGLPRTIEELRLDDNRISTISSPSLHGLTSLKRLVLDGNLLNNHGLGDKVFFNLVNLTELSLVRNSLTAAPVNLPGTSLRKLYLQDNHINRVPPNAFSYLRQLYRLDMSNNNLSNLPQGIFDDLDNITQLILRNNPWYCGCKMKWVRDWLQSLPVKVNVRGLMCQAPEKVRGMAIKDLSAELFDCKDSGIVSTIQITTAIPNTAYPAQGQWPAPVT

T2: FLRT3-LRR R117T (mouse, UniProt Q8BGT1 29-386, R117T, additional N-linked glycosylation at Asn115)
T2 sequence (looked up): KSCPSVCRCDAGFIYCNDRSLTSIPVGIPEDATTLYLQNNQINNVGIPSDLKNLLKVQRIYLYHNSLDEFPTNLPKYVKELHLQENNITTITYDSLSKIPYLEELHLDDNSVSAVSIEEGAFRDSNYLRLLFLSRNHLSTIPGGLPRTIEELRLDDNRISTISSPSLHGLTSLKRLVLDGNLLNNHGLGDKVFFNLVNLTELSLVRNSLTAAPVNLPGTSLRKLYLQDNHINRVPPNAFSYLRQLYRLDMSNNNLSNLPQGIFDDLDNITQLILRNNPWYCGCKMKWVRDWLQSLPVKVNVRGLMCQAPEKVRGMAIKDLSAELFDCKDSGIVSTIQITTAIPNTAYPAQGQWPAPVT


Columns and labels:
[1] = target: T1, FLRT3-LRR F160A; assay: ITC
[2] = target: T2, FLRT3-LRR R117T; assay: ITC
[3] = target: the molecule itself; assay: AUC

| Binder | Kd [1] | Kd [2] | Kd [3] | stoichiometry N [3] |
| --- | --- | --- | --- | --- |
| LPHN3-OLF (olfactomedin domain of mouse latrophilin 3, amino acids 199-495) (domain or fragment, UniProt Q80TS3 199-495, looked up) KVFLCPGLLKGVYQSEHLFESDHQSGAWCKDPLQASDKIYYMPWTPYRTDTLTEYSSKDDFIAGRPTTTYKLPHRVDGTGFVVYDGALFFNKERTRNIVKFDLRTRIKSGEAIIANANYHDTSPYRWGGKSDIDLAVDENGLWVIYATEQNNGKIVISQLNPYTLRIEGTWDTAYDKRSASNAFMICGILYVVKSVYEDDDNEATGNKIDYIYNTDQSKDSLVDVPFPNSYQYIAAVDYNPRDNLLYVWNNYHVVKYSLDFGPLDSRSGPVHHGQVSYISPPIHLDSELERPPVRGI | 1000 nM | 27 nM |  |  |
| FLRT3-LRR (leucine-rich repeat domain of mouse FLRT3, amino acids 29-386) (domain or fragment, UniProt Q8BGT1 29-386, looked up, N-linked glycosylation (three predicted sites; one N-Acetyl-glucosamine modelled on Asn226)) KSCPSVCRCDAGFIYCNDRSLTSIPVGIPEDATTLYLQNNQINNVGIPSDLKNLLKVQRIYLYHNSLDEFPTNLPKYVKELHLQENNIRTITYDSLSKIPYLEELHLDDNSVSAVSIEEGAFRDSNYLRLLFLSRNHLSTIPGGLPRTIEELRLDDNRISTISSPSLHGLTSLKRLVLDGNLLNNHGLGDKVFFNLVNLTELSLVRNSLTAAPVNLPGTSLRKLYLQDNHINRVPPNAFSYLRQLYRLDMSNNNLSNLPQGIFDDLDNITQLILRNNPWYCGCKMKWVRDWLQSLPVKVNVRGLMCQAPEKVRGMAIKDLSAELFDCKDSGIVSTIQITTAIPNTAYPAQGQWPAPVT |  |  | 43300 nM | 2 |
